Experimental data published in the supplement of paper PMC11246515.
± gives the standard deviation of the averaged measurements.

Assay: total protein half-life in vivo (active degradation + dilution); higher = more stable protein
[1] = E. coli NCM3722 delta-clpP delta-lon delta-hslV, growth: N-lim chemostat, doubling time 6 h
[2] = E. coli NCM3722 delta-clpP, growth: N-lim chemostat, doubling time 6 h
[3] = E. coli NCM3722 delta-hslV, growth: N-lim chemostat, doubling time 6 h
[4] = E. coli NCM3722 delta-lon, growth: N-lim chemostat, doubling time 6 h
[5] = E. coli NCM3722 delta-smpB, growth: N-lim chemostat, doubling time 6 h
[6] = wild type E. coli NCM3722, growth: C-lim chemostat, doubling time 3 h
[7] = wild type E. coli NCM3722, growth: C-lim chemostat, doubling time 6 h
[8] = wild type E. coli NCM3722, growth: C-lim chemostat, doubling time 12 h
[9] = wild type E. coli NCM3722, growth: N-lim chemostat, doubling time 6 h
[10] = wild type E. coli NCM3722, growth: N-lim chemostat, doubling time 12 h
[11] = wild type E. coli NCM3722, growth: P-lim chemostat, doubling time 6 h
[12] = wild type E. coli NCM3722, growth: P-lim chemostat, doubling time 12 h

| Sequence | total protein half-life in vivo [1] | total protein half-life in vivo [2] | total protein half-life in vivo [3] | total protein half-life in vivo [4] | total protein half-life in vivo [5] | total protein half-life in vivo [6] | total protein half-life in vivo [7] | total protein half-life in vivo [8] | total protein half-life in vivo [9] | total protein half-life in vivo [10] | total protein half-life in vivo [11] | total protein half-life in vivo [12] |
| --- | --- | --- | --- | --- | --- | --- | --- | --- | --- | --- | --- | --- |
| MIPDVSQALAWLEKHPQALKGIQRGLERETLRVNADGTLATTGHPEALGSALTHKWITTDFAEALLEFITPVDGDIEHMLTFMRDLHRYTARNMGDERMWPLSMPCYIAEGQDIELAQYGTSNTGRFKTLYREGLKNRYGALMQTISGVHYNFSLPMAFWQAKCGDISGADAKEKISAGYFRVIRNYYRFGWVIPYLFGASPAICSSFLQGKPTSLPFEKTECGMYYLPYATSLRLSDLGYTNKSQSNLGITFNDLYEYVAGLKQAIKTPSEEYAKIGIEKDGKRLQINSNVLQIENELYAPIRPKRVTRSGESPSDALLRGGIEYIEVRSLDINPFSPIGVDEQQVRFLDLFMVWCALADAPEMSSSELACTRVNWNRVILEGRKPGLTLGIGCETAQFPLPQVGKDLFRDLKRVAQTLDSINGGEAYQKVCDELVACFDNPDLTFSARILRSMIDTGIGGTGKAFAEAYRNLLREEPLEILREEDFVAEREASERRQQEMEAADTEPFAVWLEKHA [P0A6W9] | 4.67 ± 0.094 h | 4.57 ± 0.48 h | 4.96 ± 0.18 h | 5.15 ± 0.6 h | 4.55 ± 0.18 h | 3.36 ± 0.2 h | 6.04 ± 0.38 h | 9.533 ± 0.031 h | 4.35 ± 0.33 h | 7.2 ± 0.27 h | 6.1209 ± 0.0053 h | 11.4 ± 0.35 h |
| MAQRVQLTATVSENQLGQRLDQALAEMFPDYSRSRIKEWILDQRVLVNGKVCDKPKEKVLGGEQVAINAEIEEEARFEPQDIPLDIVYEDEDIIIINKPRDLVVHPGAGNPDGTVLNALLHYYPPIADVPRAGIVHRLDKDTTGLMVVAKTVPAQTRLVESLQRREITREYEAVAIGHMTAGGTVDEPISRHPTKRTHMAVHPMGKPAVTHYRIMEHFRVHTRLRLRLETGRTHQIRVHMAHITHPLVGDPVYGGRPRPPKGASEAFISTLRKFDRQALHATMLRLYHPISGIEMEWHAPIPQDMVELIEVMRADFEEHKDEVDWL | 5.82 ± 0.6 h | 5.7 ± 0.94 h | 5.65 ± 0.66 h | 5.51 ± 0.46 h | 4.66 ± 0.21 h | 3.66 ± 0.34 h | 5.83 ± 0.07 h | 9.95 ± 1.4 h | 5.63 ± 0.2 h | 8.47 ± 0.64 h | 5.72 ± 0.12 h | 11.2 ± 0.25 h |
| MSKTFARSSLCALSMTIMTAHAAEPPTNLDKPEGRLDIIAWPGYIERGQTDKQYDWVTQFEKETGCAVNVKTAATSDEMVSLMTKGGYDLVTASGDASLRLIMGKRVQPINTALIPNWKTLDPRVVKGDWFNVGGKVYGTPYQWGPNLLMYNTKTFPTPPDSWQVVFVEQNLPDGKSNKGRVQAYDGPIYIADAALFVKATQPQLGISDPYQLTEEQYQAVLKVLRAQHSLIHRYWHDTTVQMSDFKNEGVVASSAWPYQANALKAEGQPVATVFPKEGVTGWADTTMLHSEAKHPVCAYKWMNWSLTPKVQGDVAAWFGSLPVVPEGCKASPLLGEKGCETNGFNYFDKIAFWKTPIAEGGKFVPYSRWTQDYIAIMGGR | 5.24 ± 0.43 h | 5.67 ± 0.8 h | 7.1 ± 0.7 h | 7.128 ± 0.054 h | 5.71 ± 0.53 h | 3.27 ± 0.29 h | 7.18 ± 0.46 h | 13.3 ± 0.99 h | 6.37 ± 0.074 h | 14.3 ± 0.99 h | 6.9 ± 1 h | 13.8 ± 0.29 h |
| MATFSLGKHPHVELCDLLKLEGWSESGAQAKIAIAEGQVKVDGAVETRKRCKIVAGQTVSFAGHSVQVVA [P0AAS7] | 4.09 ± 0.36 h | 3.39 ± 0.29 h | 2.72 ± 0.6 h | 4.18 ± 1.2 h | 2.3 ± 0.15 h | 2.4 ± 0.59 h | 4 ± 0.91 h | 4.46 ± 0.44 h | 2.71 ± 0.057 h | 3.68 ± 0.15 h | 1.97 ± 0.26 h | 3.576 ± 0.012 h |
| MLNNAMSVVILAAGKGTRMYSDLPKVLHTLAGKAMVQHVIDAANELGAAHVHLVYGHGGDLLKQALKDDNLNWVLQAEQLGTGHAMQQAAPFFADDEDILMLYGDVPLISVETLQRLRDAKPQGGIGLLTVKLDDPTGYGRITRENGKVTGIVEHKDATDEQRQIQEINTGILIANGADMKRWLAKLTNNNAQGEYYITDIIALAYQEGREIVAVHPQRLSEVEGVNNRLQLSRLERVYQSEQAEKLLLAGVMLRDPARFDLRGTLTHGRDVEIDTNVIIEGNVTLGHRVKIGTGCVIKNSVIGDDCEISPYTVVEDANLAAACTIGPFARLRPGAELLEGAHVGNFVEMKKARLGKGSKAGHLTYLGDAEIGDNVNIGAGTITCNYDGANKFKTIIGDDVFVGSDTQLVAPVTVGKGATIAAGTTVTRNVGENALAISRVPQTQKEGWRRPVKKK [P0ACC7] | 6.48 ± 0.94 h | 5.96 ± 1.1 h | 5.08 ± 0.11 h | 5.46 ± 0.28 h | 4.93 ± 0.12 h | 2.92 ± 0.096 h | 5.9 ± 0.48 h | 11.8 ± 0.66 h | 5.122 ± 0.044 h | 9.31 ± 0.57 h | 5.96 ± 0.37 h | 12.9 ± 0.34 h |
